Experiments:
[1] = test system: OmpR-6His (Dickeya dadantii 3937 (EC3937)); test: EMSA; conditions: 10 mM Tris pH 7.5, 50 mM NaCl, 0.5 mM DTT, 1 mM MgCl2, 2.5% glycerol; 20 min at room temperature; 50 ng DNA in 20 ul; 6% acrylamide-TBE gel
[2] = test system: RcsB-6His (Dickeya dadantii 3937 (EC3937)?); test: EMSA; conditions: 10 mM Tris pH 7.5, 50 mM NaCl, 0.5 mM DTT, 1 mM MgCl2, 2.5% glycerol; 20 min at room temperature; 50 ng DNA in 20 ul; 6% acrylamide-TBE gel

## opgC promoter region
[1]
  binding: 500 ng
[2]
  binding: 300 ng
